Reference: the supplement of paper PMC12764529
± gives the half width of the 95% confidence interval.

How the values were obtained:
[1] = folding stability dG unfold from trypsin proteolysis; higher = more stable
Procedure, shortened: (§1)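 Mini-proteins designed to be under 80 residues and free of cysteine were carried in a PA-tagged cDNA display construct and digested with trypsin and with chymotrypsin. Each protease was applied at 11 threefold-diluted concentrations, alongside a no-protease condition, before sequencing. K50 came from Bayesian fitting of the sequencing counts, and unfolding free energy was obtained by comparing it with a sequence-predicted unfolded-state K50 and a shared folded-state K50, for each protease separately or for both together. Designs were retained only if their AlphaFold2 dimer inter-PAE exceeded 15.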

[2] = folding stability dG unfold (combined trypsin and chymotrypsin); higher = more stable
Procedure, shortened: as §1

[3] = folding stability dG unfold from chymotrypsin proteolysis; higher = more stable
Procedure, shortened: as §1

Sequence	folding stability dG unfold [1]	folding stability dG unfold [2]	folding stability dG unfold [3]
SAGGKEWYIKVSIEHRNPNNGEKRELSITIPVEGMSAEEALDIARELARHLPPENVKIEVDIVPLDDSAGGS [r16_774_TrROS]	1.78 ± 0.051 kcal/mol	1.86 ± 0.17 kcal/mol	2.08 ± 0.032 kcal/mol
SAGGSAGGSAGGKDPYLALKTVRVRLVRDYLLGDKPVKTELIEEADVPVLIVFEPEELLSAGGSAGGSAGGS [r10_492_TrMRF]	0.0714 ± 0.069 kcal/mol	0.441 ± 0.053 kcal/mol	0.536 ± 0.086 kcal/mol
SAGGKEVKPIKGKVKITVNGKEIEVEVKKAKIVKNKDGSYYIFIEKDGKKLLIKLKNGKLVKIEEVPSAGGS [r16_721_TrROS_Hall]	2.37 ± 0.097 kcal/mol	3.42 ± 0.089 kcal/mol	3.89 ± 0.042 kcal/mol
SAGGSAGGSAGMMKVRIRVDGKEIEIEVPPGMTVDEIAERLKKEFGKDIEIEVEEVKPEPSAGGSAGGSAGG [r11_805_TrROS_Hall]	3.72 ± 0.23 kcal/mol	3.39 ± 0.22 kcal/mol	3.17 ± 0.1 kcal/mol
SAGGSAGGSKVKIETVENEDGVKFERVVDEETGKTVFLAKNKKTGKLYLFVITPDGEIKVFELSAGGSAGGS [r12_474_TrROS_Hall]	1.42 ± 0.033 kcal/mol	2.27 ± 0.089 kcal/mol	2.6 ± 0.049 kcal/mol
SAGGKDVKPIPVRIKIWYPDDGKPIHEIPVSAYQMDDKIHITFESPELLQFAKELAQKKGFKVEIEPSAGGS [r16_327_TrROS]	0.513 ± 0.047 kcal/mol	0.695 ± 0.11 kcal/mol	0.751 ± 0.12 kcal/mol
SAGGSAGGSKIEFTVPDNDELIEYIRKWFQDNGGQIKNIKIEPTPPNQVKVEIEINPGDPWFQSAGGSAGGS [r12_647_TrROS]	1.74 ± 0.041 kcal/mol	2.2 ± 0.14 kcal/mol	2.36 ± 0.077 kcal/mol
SAGGSAGGSAPPNDWYVGIMEITININIDADQLPPPLREKFEKNGIKEIRITFVSVFPPDDFSAGGSAGGSA [r18_127_TrROS]	2.76 ± 0.21 kcal/mol	3.14 ± 0.19 kcal/mol	3.56 ± 0.11 kcal/mol
SAGGSGEVRPLELEFTLPNGAKIKITLHVYPDGTVKVEARIEFGGEYLELRFEFEGEKVPLDFPDFGSAGGS [r16_523_TrMRF]	3.58 ± 0.13 kcal/mol	3.73 ± 0.2 kcal/mol	3.73 ± 0.11 kcal/mol
SAGTIHFMVPRDEMSDEEAEDIVNTIAKHFPGFKIDRIYWHKQPDPDGDPRRMYHVEIKIKIPLPPGMKSAG [r5_835_TrROS]	1.29 ± 0.022 kcal/mol	2.06 ± 0.059 kcal/mol	2.41 ± 0.06 kcal/mol
SAGGSAGGSKFKIVSIEVTVETNEDGSKTLTVKIRLEDGSEITITVPENATLEEVLKLLKELASAGGSAGGS [r12_1047_TrROS_Hall]	3.88 ± 0.2 kcal/mol	4.31 ± 0.11 kcal/mol	4.42 ± 0.051 kcal/mol
SAGGSAGGSAGGIGEGTPIERLIEGKPIPFYVDESTGKAYYTLPEDKKIETTIEDPEKVSAGGSAGGSAGGS [r10_1185_TrMRF]	-0.377 ± 0.19 kcal/mol	0.202 ± 0.15 kcal/mol	0.442 ± 0.22 kcal/mol
SAGGSAKKIKIFSLEELRERFPDLSEEELKKRAEELAKELAERLKEEGKPVEVEIVEVKLPEEEKKSAGGSA [r15_287_TrROS_Hall]	0.382 ± 0.13 kcal/mol	1.69 ± 0.094 kcal/mol	2.107 ± 0.015 kcal/mol
SAGGSAGGSAGKIEVEGDVEVTVFPPYGLATVTTPNGERYVLLVETRPDGSKRVLLFSAGSAGGSAGGSAGG [r11_331_TrMRF]	2.02 ± 0.039 kcal/mol	2.26 ± 0.045 kcal/mol	2.37 ± 0.026 kcal/mol
SAGGSSPWLERALEEARELMKNDPPGKEVEAKVKVPYPTPDGQQQPMKFRIRMTYKNNKIKEIEITSAGGSA [r2_173_TrROS]	0.91 ± 0.11 kcal/mol	0.823 ± 0.17 kcal/mol	0.518 ± 0.25 kcal/mol
SAGGSAGGSAGGKRTLLIRVPPGASVEQVLEELKRLLPPGAKITVELDPETRTLRVTIDSAGGSAGGSAGGS [r10_163_TrROS_Hall]	3.28 ± 0.075 kcal/mol	3.89 ± 0.12 kcal/mol	4.12 ± 0.057 kcal/mol

Sequence	folding stability dG unfold [1]	folding stability dG unfold [2]	folding stability dG unfold [3]
SAGGVITAEQLRDLVKTLPPDYTIRVKVYYSTSTEEYTITPDNPIKFPPNAPTETITRIEVVEISPDSAGGS [r16_97_TrMRF]	3.87 ± 0.088 kcal/mol	4.33 ± 0.068 kcal/mol	4.43 ± 0.045 kcal/mol
SMFTLVLPDGSVIPVIKGDSTTTVYDPRTGRTLPIPSSTVEENSIEEIVERILAELEKLGVPAQPVEILESA [r9_1211_JUSTAS]	1.99 ± 0.035 kcal/mol	1.84 ± 0.034 kcal/mol	1.72 ± 0.032 kcal/mol
SAGGMKIVSVEFDEETGEVYVKIEVPTPEELEALKKLPGEVRIVDKETGEVKVIKVKSIEELLELLKKSAGG [r13_604_TrROS_Hall]	1.86 ± 0.086 kcal/mol	2.05 ± 0.15 kcal/mol	2.18 ± 0.071 kcal/mol
SAGGSAGGSAGGMPVTLNVTVKTKDPDGVAATETVTLTFSSPEEALAAIKAAYPNSTIESAGGSAGGSAGGS [r10_1248_JUSTAS]	0.995 ± 0.057 kcal/mol	1.15 ± 0.12 kcal/mol	1.33 ± 0.061 kcal/mol
SAGGSAPDWKIVDIEPTDNSITITVEAPPGVRVMIFNPGNGKVQHRPFPPGDTITIPPRMYIMVWVSAGGSA [r15_418_TrROS]	2.43 ± 0.032 kcal/mol	2.84 ± 0.081 kcal/mol	3.121 ± 0.03 kcal/mol
SAGPIKELLEFLKANPDAVVEFEFTLPNGAKVKIKAKKFPDAVVLEVTTIDPNNKKPITGTITIPLPESAGG [r19_143_TrMRF]	4.15 ± 0.13 kcal/mol	3.81 ± 0.13 kcal/mol	3.49 ± 0.072 kcal/mol
SMKVEIEEEVEGDRITLTIKFDDEEEAEKAIKELAKELGIPMKVLSRESEKLPGGEYKLTITGEVPPDLKSA [r9_102_JUSTAS]	0.192 ± 0.083 kcal/mol	0.529 ± 0.24 kcal/mol	1.1 ± 0.24 kcal/mol
SAGGEKIKEALEKVPGLEIVKVEKKDGKVYIHIKAKSEEQRKKAAEALKKLPGIKEVKIEVIPEEELSAGGS [r16_671_TrROS_Hall]	3.28 ± 0.15 kcal/mol	3.03 ± 0.21 kcal/mol	2.88 ± 0.064 kcal/mol
SAGGSAEVYKVKIKIERVLPNGEKVEEEITIEVEGMSEEELLALARELAAEPGVRIKEIEIEKLPPSAGGSA [r15_550_TrROS_Hall]	4.82 ± 0.24 kcal/mol	4.65 ± 0.38 kcal/mol	4.54 ± 0.19 kcal/mol
SAGGSAETITVMIPPNFLKKLKDQGIKIPPGYPWITITVTYNPDGKIKIKVQIQPMPPVSPEDMKKSAGGSA [r15_322_TrROS]	1.44 ± 0.091 kcal/mol	2.29 ± 0.34 kcal/mol	2.72 ± 0.3 kcal/mol
SAGKTRTINFPGFQIQVQRDPDGKKEITIMFDNPEQRKQMIEQNPFLREFIEWAEKDGLKVEIHVMPPKSAG [r14_873_TrROS]	1.85 ± 0.071 kcal/mol	2.06 ± 0.18 kcal/mol	2.04 ± 0.15 kcal/mol
SAGGSASMSNVTSYVTVYKKPGVDDLYYKVRILAPSEPKVIEIPESEIPKYEKEGIKIEKVSEELLSAGGSA [r15_783_JUSTAS]	0.901 ± 0.36 kcal/mol	1.28 ± 0.34 kcal/mol	1.96 ± 0.32 kcal/mol
SAGGSAGGSKIEITVKTKEELLEAIRKLAEEKGYEIVSIKIEKLPDGTYKVTIEIRKNDPLLKSAGGSAGGS [r12_647_TrROS_Hall]	1.35 ± 0.083 kcal/mol	2.38 ± 0.12 kcal/mol	2.79 ± 0.076 kcal/mol
SAGMKPSPEGKTIITIDTSTGKVDVVFPDGKEFTLPFDSSSIEEIIKTIKEKLGYPPEVPFNIDEIEIASAG [r5_923_JUSTAS]	2.41 ± 0.1 kcal/mol	2.31 ± 0.079 kcal/mol	2.239 ± 0.019 kcal/mol
SAGGGELYIMFKFDFTFWINNGTISFDMYIMIRIPIPPPPVPIELEDDPDGSYKYEYPNGKEHEVPNSAGGS [r16_136_TrROS]	3.15 ± 0.1 kcal/mol	3.23 ± 0.22 kcal/mol	3.16 ± 0.079 kcal/mol
